Reference: publication PMC7948507, “Active site metals mediate an oligomeric equilibrium in Plasmodium M17 aminopeptidases” (The Journal of Biological Chemistry, 2020)
Changes are numbered by the printed parent chain. Names may count otherwise.

Experiments:
[1] = target: the molecule itself; test: AUC; sedimentation velocity, 0.5 mg/ml, 20 °C, 50 mM HEPES pH 8.0, 0.3 M NaCl with 50 μM MnCl2
[2] = target: the molecule itself; test: SEC; in the presence of 100 mM EDTA
[3] = target: the molecule itself; test: SEC-MALS; 100 μl samples at 3 mg/ml, Superdex S200 Increase 10/300 GL, 50 mM HEPES pH 8.0, 0.3 M NaCl, no metal added
[4] = target: the molecule itself; test: AUC; sedimentation velocity, 0.5 mg/ml, 20 °C, 40,000 rpm, 50 mM HEPES pH 8.0, 0.3 M NaCl, no metal added
[5] = target: the molecule itself; test: crystal structure; 0.1 M HEPES pH 6.5, 15% PEG 3350, 0.15 M (NH4)2SO4; two hexamers in the asymmetric unit

B1: Plasmodium vivax M17 aminopeptidase Pv-M17 (residues 73-621), wild type (enzyme, UniProt A5K3U9 73-621, looked up)
chain: MATTVPQVVSLDPTTIPIDYHTPIDDLSIEVKDISAEACPADEGLIVFLLNSAPKHSSSGGSGGNGGSAGSSGNGEGGAQIKINSSVKDNTINEFLKEGNMENFTGKLGTSKSFYIANDQKKYVSLAYVGCGPANEETELEIRKVAYALVTLLHDSKHKKVSIIFEIKIEEALFRFFLEHLFYEYVTDERFKSADKSTETDFIKNLSLHIANADAYKGQIDKARVYFYGTYYAAQLIAAPSNYCNPVSLSNAAVELAQKVNLECKILDVKELEELKMGAYLSVGKGSMYPNKFIHLTYKGAQTGASQNEKKKIALIGKGITFDSGGYNLKAAPGSMIDLMKFDMSGCAAVLGCAYCIGTIKPDNVEVHFLSAVCENMVSKNSYRPGDIITASNGKTIEVGNTDAEGRLTLADALVYAEKLGVDYIVDIATLTGAMLYSLGTSYAGVFGNNDQLINKILSSSKTSNEPVWWLPIINEYRSSLNSKYADLNNISSSVKASSVVASLFLKEFIENTPWAHIDIAGVSWNFKARKPKGFGVRLLTEFVLNDAV
notes: M17 leucyl aminopeptidase of Plasmodium vivax, residues 73-621; N-terminal truncation of 72 residues; it is residues 73-621; Synthetic gene (DNA 2.0) in pJ404; also called PvLAP; Pv-M17 WT; source: E. coli BL21 DE3, purified (Ni-NTA, SEC)
stoichiometry N [1]: 6 | stoichiometry N [2]: 4 | stoichiometry N [3]: 2

B2: Pv-M17 (D395A and E477L) (enzyme)
chain: B1 chain with D323A, E405L
notes: also called Pv-M17(AL); Pv-M17 (AL); source: E. coli BL21 DE3, purified (Ni-NTA, SEC)
binding result [4]: binds

B3: Plasmodium falciparum M17 aminopeptidase PfA-M17 (residues 84-605), wild type (enzyme, UniProt Q8IL11 84-605, looked up)
chain: MASEVPQVVSLDPTSIPIEYNTPIHDIKVQVYDIKGGCNVEEGLTIFLVNNPGKENGPVKISSKVNDKNVSEFLKDENMEKFNVKLGTSKHFYMFNDNKNSVAVGYVGCGSVADLSEADMKRVVLSLVTMLHDNKLSKLTVVFEINVDKNLFRFFLETLFYEYMTDERFKSTDKNVNMEYIKHLGVYINNADTYKEEVEKARVYYFGTYYASQLIAAPSNYCNPVSLSNAAVELAQKLNLEYKILGVKELEELKMGAYLSVGKGSMYPNKFIHLTYKSKGDVKKKIALVGKGITFDSGGYNLKAAPGSMIDLMKFDMSGCAAVLGCAYCVGTLKPENVEIHFLSAVCENMVSKNSYRPGDIITASNGKTIEVGNTDAEGRLTLADALVYAEKLGVDYIVDIATLTGAMLYSLGTSYAGVFGNNEELINKILNSSKTSNEPVWWLPIINEYRATLNSKYADINNISSSVKASSIVASLFLKEFVQNTAWAHIDIAGVSWNFKARKPKGFGVRLLTEFVLNDAL
notes: M17 leucyl aminopeptidase of Plasmodium falciparum, residues 84-605; residues 1-83 (asparagine-rich low complexity region) omitted; In solution a metal-dependent equilibrium of monomer, dimer, tetramer and hexamer; also called PfLAP; PfA-M17 WT; source: E. coli BL21 DE3, purified (Ni-NTA, SEC)
stoichiometry N [4]: 2 | stoichiometry N [3]: 6

B4: PfA-M17 (D379A + E461L) (enzyme)
chain: B3 chain with D296A, E378L
notes: also called PfA-M17(AL); PfA-M17 (AL); source: E. coli BL21 DE3, purified (Ni-NTA, SEC)
binding result [4]: binds

B5: Pv-M17Δ125-151 (enzyme)
chain: MATTVPQVVSLDPTTIPIDYHTPIDDLSIEVKDISAEACPADEGLIVFLLNSQIKINSSVKDNTINEFLKEGNMENFTGKLGTSKSFYIANDQKKYVSLAYVGCGPANEETELEIRKVAYALVTLLHDSKHKKVSIIFEIKIEEALFRFFLEHLFYEYVTDERFKSADKSTETDFIKNLSLHIANADAYKGQIDKARVYFYGTYYAAQLIAAPSNYCNPVSLSNAAVELAQKVNLECKILDVKELEELKMGAYLSVGKGSMYPNKFIHLTYKGAQTGASQNEKKKIALIGKGITFDSGGYNLKAAPGSMIDLMKFDMSGCAAVLGCAYCIGTIKPDNVEVHFLSAVCENMVSKNSYRPGDIITASNGKTIEVGNTDAEGRLTLADALVYAEKLGVDYIVDIATLTGAMLYSLGTSYAGVFGNNDQLINKILSSSKTSNEPVWWLPIINEYRSSLNSKYADLNNISSSVKASSVVASLFLKEFIENTPWAHIDIAGVSWNFKARKPKGFGVRLLTEFVLNDAV
notes: also called Pv-M17 N-terminal loop deletion mutant; source: E. coli BL21 DE3, purified (Ni-NTA, SEC)
stoichiometry N [5]: 6
